From patent US7842469B2, “Bioluminescence resonance energy transfer (BRET) systems and methods of use thereof” (Stanford University, priority 2005, dated 2010)

Assays:
[1] = Luciferase activity of purified RLuc mutants (light output integrated over 10 s, luminometer); type: biochemical; conditions: for Activity (relative to RLuc) bc: benzyl-coelenterazine; for Activity (relative to RLuc) bc / Activity (relative to RLuc) bdc / Activity (relative to RLuc) cp / Activity (relative to RLuc) n / Activity (relative to RLuc) native: relative to native enzyme; for Activity (relative to RLuc) bdc: bisdeoxycoelenterazine; for Activity (relative to RLuc) cp: coelenterazine-cp; for Activity (relative to RLuc) n: coelenterazine-n; for improvement in light output (activity) compared to native RLuc / Activity (relative to RLuc) native: native coelenterazine
From the text: Luminometer Calibration: Light measurements were made using a Turner 20/20 and later a Turner 20/20n luminometer (Turner Designs, Sunnyvale, Calif.). The luminometers were calibrated to absolute units (photons/s) using the luminol light standard performed in dimethyl sulfoxide (DMSO). No corrections were applied for the spectral sensitivity of the luminometer, as the spectral peak of luminol chemiluminescence in DMSO (486 nm) is close to the spectral peak of Renilla Luciferase bioluminescence (482 nm).
Characterization of Renilla Luciferase Mutants: Luciferase activity was measured by adding 1 μl of sample (diluted as necessary in EB containing 1% HSA) to 100 μl room temperature 100 mM sodium phosphate buffer (pH 7), manually adding 1 μl of 0.5 μg/μl coelenterazine or analog, manually mixing, and reading for 10 s in a luminometer. The time between the addition of the luciferin and the start of measurement was approximately 4 s.

[2] = Serum stability in mouse serum at 37° C.; type: in vitro ADME; conditions: for Serum τ1/2 (h) mouse: 37° C., mono-exponential fit; for stability (lability) compared to the native enzyme: murine serum
Experimental: (§1) Serum stability measurements were done by mixing 0.5 μl dilute Luciferase with either 20 μl mouse serum or 50 μl rat serum (Equitech-Bio, Kerrville, Tex.) placing the sample in a 37° C. incubator, and removing aliquots for activity testing. To calculate serum half-lives, mono-exponential decay curves were fit to the serum stability data using a Nelder/Mead Simplex non-linear least squares minimization algorithm provided by the Octave numerical programming language. Emission spectra at ambient temperature were measured using a Triax 320 (Horiba Jobin Yvon, Edison, N.J.), which incorporates an optical grating device with a liquid N2 cooled CCD detector.

[3] = Serum stability in rat serum at 37° C.; type: in vitro ADME; conditions: mono-exponential fit
Experimental: as §1

[4] = Bioluminescence emission spectra; type: physicochemical; conditions: emission spectrum with native coelenterazine
Experimental: as §1

Molecule	Activity (relative to RLuc) bc [1]	Activity (relative to RLuc) bdc [1]	Activity (relative to RLuc) cp [1]	Activity (relative to RLuc) n [1]	improvement in light output (activity) compared to native RLuc [1]	Activity (relative to RLuc) native [1]	Serum τ1/2 (h) mouse [2] [h]	stability (lability) compared to the native enzyme [2]	stability (lability) compared to the native enzyme ([2]; listed as double mutant)	Serum τ1/2 (h) rat [3] [h]	Wavelength (nm) mean [4] [nm]	Wavelength (nm) peak [4] [nm]
E44G/C124A: RLuc mutant E44G/C124A (protein) MASKVYDPEQRKRMITGPQWWARCKQMNVLDSFINYYDSEKHAGNAVIFLHGNAASSYLWRHVVPHIEPVARCIIPDLIGMGKSGKSGNGSYRLLDHYKYLTAWFELLNLPKKIIFVGHDWGAALAFHYSYEHQDKIKAIVHAESVVDVIESWDEWPDIEEDIALIKSEEGEKMVLENNFFVETMLPSKIMRKLEPEEFAAYLEPFKEKGEVRRPTLSWPREIPLVKGGKPDVVQIVRNYNAYLRASDDLPKMFIESDPGFFSNAIVEGAKKFPNTEFVKVKGLHFSQEDAPDEMGKYIKSFVERVLKNEQ	0.78	0.98	0.74	0.66	–	0.94	2.6	–	–	3.3	502	486
A54G/A55G/C124A: RLuc mutant A54G/A55G/C124A (protein) MASKVYDPEQRKRMITGPQWWARCKQMNVLDSFINYYDSEKHAENAVIFLHGNGGSSYLWRHVVPHIEPVARCIIPDLIGMGKSGKSGNGSYRLLDHYKYLTAWFELLNLPKKIIFVGHDWGAALAFHYSYEHQDKIKAIVHAESVVDVIESWDEWPDIEEDIALIKSEEGEKMVLENNFFVETMLPSKIMRKLEPEEFAAYLEPFKEKGEVRRPTLSWPREIPLVKGGKPDVVQIVRNYNAYLRASDDLPKMFIESDPGFFSNAIVEGAKKFPNTEFVKVKGLHFSQEDAPDEMGKYIKSFVERVLKNEQ	0.10	0.19	0.06	0.15	–	0.12	2.4	–	–	3.0	492	476
A54P/C124A: RLuc mutant A54P/C124A (protein) MASKVYDPEQRKRMITGPQWWARCKQMNVLDSFINYYDSEKHAENAVIFLHGNPASSYLWRHVVPHIEPVARCIIPDLIGMGKSGKSGNGSYRLLDHYKYLTAWFELLNLPKKIIFVGHDWGAALAFHYSYEHQDKIKAIVHAESVVDVIESWDEWPDIEEDIALIKSEEGEKMVLENNFFVETMLPSKIMRKLEPEEFAAYLEPFKEKGEVRRPTLSWPREIPLVKGGKPDVVQIVRNYNAYLRASDDLPKMFIESDPGFFSNAIVEGAKKFPNTEFVKVKGLHFSQEDAPDEMGKYIKSFVERVLKNEQ	0.04	0.06	0.05	0.08	–	0.05	14	–	–	13	482	468
F33R/I34M/C124A: RLuc mutant F33R/I34M/C124A (protein) MASKVYDPEQRKRMITGPQWWARCKQMNVLDSRMNYYDSEKHAENAVIFLHGNAASSYLWRHVVPHIEPVARCIIPDLIGMGKSGKSGNGSYRLLDHYKYLTAWFELLNLPKKIIFVGHDWGAALAFHYSYEHQDKIKAIVHAESVVDVIESWDEWPDIEEDIALIKSEEGEKMVLENNFFVETMLPSKIMRKLEPEEFAAYLEPFKEKGEVRRPTLSWPREIPLVKGGKPDVVQIVRNYNAYLRASDDLPKMFIESDPGFFSNAIVEGAKKFPNTEFVKVKGLHFSQEDAPDEMGKYIKSFVERVLKNEQ	0.15	0.20	0.16	0.12	–	0.15	0.3	–	–	0.3	497	481
A54P/A55T/C124A: RLuc mutant A54P/A55T/C124A (protein) MASKVYDPEQRKRMITGPQWWARCKQMNVLDSFINYYDSEKHAENAVIFLHGNPTSSYLWRHVVPHIEPVARCIIPDLIGMGKSGKSGNGSYRLLDHYKYLTAWFELLNLPKKIIFVGHDWGAALAFHYSYEHQDKIKAIVHAESVVDVIESWDEWPDIEEDIALIKSEEGEKMVLENNFFVETMLPSKIMRKLEPEEFAAYLEPFKEKGEVRRPTLSWPREIPLVKGGKPDVVQIVRNYNAYLRASDDLPKMFIESDPGFFSNAIVEGAKKFPNTEFVKVKGLHFSQEDAPDEMGKYIKSFVERVLKNEQ	0.15	0.22	0.11	0.38	–	0.21	119	–	–	129	483	470

Continued, in another order:

Activity (relative to RLuc) bc [1]	Activity (relative to RLuc) bdc [1]	Activity (relative to RLuc) cp [1]	Activity (relative to RLuc) n [1]	improvement in light output (activity) compared to native RLuc [1]	Activity (relative to RLuc) native [1]	Molecule	Serum τ1/2 (h) mouse [2] [h]	stability (lability) compared to the native enzyme [2]	stability (lability) compared to the native enzyme ([2]; listed as double mutant)	Serum τ1/2 (h) rat [3] [h]	Wavelength (nm) mean [4] [nm]	Wavelength (nm) peak [4] [nm]
2.7	20	14	7.1	5 fold	4.8	M185V/Q235A: destabilized RLuc double mutant M185V/Q235A for use as a reporter gene (protein, Chemically synthesized Renilla Luciferase, destabilized RLuc double mutant M185V/Q235A for use as a reporter gene) MASKVYDPEQRKRMITGPQWWARCKQMNVLDSFINYYDSEKHAENAVIFLHGNAASSYLWRHVVPHIEPVARCIIPDLIGMGKSGKSGNGSYRLLDHYKYLTAWFELLNLPKKIIFVGHDWGACLAFHYSYEHQDKIKAIVHAESVVDVIESWDEWPDIEEDIALIKSEEGEKMVLENNFFVETVLPSKIMRKLEPEEFAAYLEPFKEKGEVRRPTLSWPREIPLVKGGKPDVVAIVRNYNAYLRASDDLPKMFIESDPGFFSNAIVEGAKKFPNTEFVKVKGLHFSQEDAPDEMGKYIKSFVERVLKNEQ	0.5	half the stability	twice the lability	0.2	–	–
2.6	20	12	4.1	about 4 fold	4.4	M185V: destabilized RLuc single mutant M185V (without C124A) (protein, Chemically synthesized Renilla Luciferase) MASKVYDPEQRKRMITGPQWWARCKQMNVLDSFINYYDSEKHAENAVIFLHGNAASSYLWRHVVPHIEPVARCIIPDLIGMGKSGKSGNGSYRLLDHYKYLTAWFELLNLPKKIIFVGHDWGACLAFHYSYEHQDKIKAIVHAESVVDVIESWDEWPDIEEDIALIKSEEGEKMVLENNFFVETVLPSKIMRKLEPEEFAAYLEPFKEKGEVRRPTLSWPREIPLVKGGKPDVVQIVRNYNAYLRASDDLPKMFIESDPGFFSNAIVEGAKKFPNTEFVKVKGLHFSQEDAPDEMGKYIKSFVERVLKNEQ	0.8	–	–	0.3	–	–
1.0	1.8	1.3	0.88	–	1.3	F116L/C124A: RLuc mutant F116L/C124A (protein) MASKVYDPEQRKRMITGPQWWARCKQMNVLDSFINYYDSEKHAENAVIFLHGNAASSYLWRHVVPHIEPVARCIIPDLIGMGKSGKSGNGSYRLLDHYKYLTAWFELLNLPKKIILVGHDWGAALAFHYSYEHQDKIKAIVHAESVVDVIESWDEWPDIEEDIALIKSEEGEKMVLENNFFVETMLPSKIMRKLEPEEFAAYLEPFKEKGEVRRPTLSWPREIPLVKGGKPDVVQIVRNYNAYLRASDDLPKMFIESDPGFFSNAIVEGAKKFPNTEFVKVKGLHFSQEDAPDEMGKYIKSFVERVLKNEQ	11	–	–	9.4	502	486
0.00	0.00	0.00	0.00	–	0.00	C124A/F261L/F262L: RLuc mutant C124A/F261L/F262L (protein) MASKVYDPEQRKRMITGPQWWARCKQMNVLDSFINYYDSEKHAENAVIFLHGNAASSYLWRHVVPHIEPVARCIIPDLIGMGKSGKSGNGSYRLLDHYKYLTAWFELLNLPKKIIFVGHDWGAALAFHYSYEHQDKIKAIVHAESVVDVIESWDEWPDIEEDIALIKSEEGEKMVLENNFFVETMLPSKIMRKLEPEEFAAYLEPFKEKGEVRRPTLSWPREIPLVKGGKPDVVQIVRNYNAYLRASDDLPKMFIESDPGLLSNAIVEGAKKFPNTEFVKVKGLHFSQEDAPDEMGKYIKSFVERVLKNEQ	–	–	–	–	–	–
